From patent publication US20260015399A1 (Boehringer Ingelheim, published 2026)
*1 amine or outer side, *2 acyl side, *3 side chain or, on linkers, in order; H or OH if unused. Side-chain parts run from the residue outwards. The star is where a group is joined. C18 diacid = O=C(O)CCCCCCCCCCCCCCCCC(=O)*; γGlu = O=C(O)[C@H](CCC(=O)[*:2])N[*:1]; Isovaleryl = CC(C)CC(=O)*; Ahx = NCCCCCC(=O)O

T1: human NPY2 receptor (human, UniProt P49146 1-381)
T1 sequence (looked up): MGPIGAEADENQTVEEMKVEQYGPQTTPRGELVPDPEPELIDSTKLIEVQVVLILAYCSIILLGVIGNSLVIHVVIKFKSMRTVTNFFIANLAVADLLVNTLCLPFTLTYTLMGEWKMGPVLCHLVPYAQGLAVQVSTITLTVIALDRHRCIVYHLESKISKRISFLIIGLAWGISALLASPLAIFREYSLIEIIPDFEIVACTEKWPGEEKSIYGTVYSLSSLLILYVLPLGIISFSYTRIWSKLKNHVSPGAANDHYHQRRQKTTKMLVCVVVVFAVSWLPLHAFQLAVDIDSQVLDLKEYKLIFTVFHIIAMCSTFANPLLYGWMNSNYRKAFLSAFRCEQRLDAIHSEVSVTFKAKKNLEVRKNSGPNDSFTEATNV

T2: human NPY5 receptor (human, UniProt Q15761 1-445)
T2 sequence (looked up): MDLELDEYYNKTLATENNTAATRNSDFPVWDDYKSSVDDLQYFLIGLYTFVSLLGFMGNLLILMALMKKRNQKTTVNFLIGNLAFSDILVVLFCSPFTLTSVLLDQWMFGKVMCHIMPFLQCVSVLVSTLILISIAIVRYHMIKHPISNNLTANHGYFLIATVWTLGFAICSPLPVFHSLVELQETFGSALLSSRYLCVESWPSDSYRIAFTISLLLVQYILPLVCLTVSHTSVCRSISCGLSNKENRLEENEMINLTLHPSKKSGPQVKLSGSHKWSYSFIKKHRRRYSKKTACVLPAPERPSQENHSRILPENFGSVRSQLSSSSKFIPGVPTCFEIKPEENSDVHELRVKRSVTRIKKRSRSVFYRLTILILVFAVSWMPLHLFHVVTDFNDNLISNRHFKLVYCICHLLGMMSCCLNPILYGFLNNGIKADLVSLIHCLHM


What was measured:
human NPY2 receptor [1] = biological target: T1, human NPY2 receptor; assay: cell-based or functional assay
human NPY5 receptor = biological target: T2, human NPY5 receptor; assay: cell-based or functional assay
human NPY2 receptor [2] = biological target: T1, human NPY2 receptor; assay: RLB: displacement of 125I-PYY(1-36) from hNPY2R membranes

| EC50, HTRF cAMP Gi assay (human NPY2 receptor [1]) [nM] | EC50, HTRF cAMP Gi assay (human NPY5 receptor) [nM] | Ki (human NPY2 receptor [2]) [nM] | Binder |
| --- | --- | --- | --- |
| 0.086 | > 5000 | 1.28 | Isovaleryl-APEK([Ahx-γGlu-C18 diacid])PPEDASPEELQRYYVSLRHYYNWLTRQRY-NH2 (SMILES CC(C)CC(=O)N[C@@H](C)C(=O)N1CCC[C@H]1C(=O)N[C@@H](CCC(=O)O)C(=O)N[C@@H](CCCCNC(=O)CCCCCNC(=O)CC[C@H](NC(=O)CCCCCCCCCCCCCCCCC(=O)O)C(=O)O)C(=O)N1CCC[C@H]1C(=O)N1CCC[C@H]1C(=O)N[C@@H](CCC(=O)O)C(=O)N[C@@H](CC(=O)O)C(=O)N[C@@H](C)C(=O)N[C@@H](CO)C(=O)N1CCC[C@H]1C(=O)N[C@@H](CCC(=O)O)C(=O)N[C@@H](CCC(=O)O)C(=O)N[C@@H](CC(C)C)C(=O)N[C@@H](CCC(N)=O)C(=O)N[C@@H](CCCNC(=N)N)C(=O)N[C@@H](Cc1ccc(O)cc1)C(=O)N[C@@H](Cc1ccc(O)cc1)C(=O)N[C@H](C(=O)N[C@@H](CO)C(=O)N[C@@H](CC(C)C)C(=O)N[C@@H](CCCNC(=N)N)C(=O)N[C@@H](Cc1c[nH]cn1)C(=O)N[C@@H](Cc1ccc(O)cc1)C(=O)N[C@@H](Cc1ccc(O)cc1)C(=O)N[C@@H](CC(N)=O)C(=O)N[C@@H](Cc1c[nH]c2ccccc12)C(=O)N[C@@H](CC(C)C)C(=O)N[C@H](C(=O)N[C@@H](CCCNC(=N)N)C(=O)N[C@@H](CCC(N)=O)C(=O)N[C@@H](CCCNC(=N)N)C(=O)N[C@@H](Cc1ccc(O)cc1)C(N)=O)[C@@H](C)O)C(C)C) [Compound 14] |
| 0.14 | > 5000 | 3.98 | Isovaleryl-APEK([Ahx-γGlu-C18 diacid])PEEDASPEEIQQYYVSLRHYYNWLTRQRY-NH2 (SMILES CC[C@H](C)[C@H](NC(=O)[C@H](CCC(=O)O)NC(=O)[C@H](CCC(=O)O)NC(=O)[C@@H]1CCCN1C(=O)[C@H](CO)NC(=O)[C@H](C)NC(=O)[C@H](CC(=O)O)NC(=O)[C@H](CCC(=O)O)NC(=O)[C@H](CCC(=O)O)NC(=O)[C@@H]1CCCN1C(=O)[C@H](CCCCNC(=O)CCCCCNC(=O)CC[C@H](NC(=O)CCCCCCCCCCCCCCCCC(=O)O)C(=O)O)NC(=O)[C@H](CCC(=O)O)NC(=O)[C@@H]1CCCN1C(=O)[C@H](C)NC(=O)CC(C)C)C(=O)N[C@@H](CCC(N)=O)C(=O)N[C@@H](CCC(N)=O)C(=O)N[C@@H](Cc1ccc(O)cc1)C(=O)N[C@@H](Cc1ccc(O)cc1)C(=O)N[C@H](C(=O)N[C@@H](CO)C(=O)N[C@@H](CC(C)C)C(=O)N[C@@H](CCCNC(=N)N)C(=O)N[C@@H](Cc1c[nH]cn1)C(=O)N[C@@H](Cc1ccc(O)cc1)C(=O)N[C@@H](Cc1ccc(O)cc1)C(=O)N[C@@H](CC(N)=O)C(=O)N[C@@H](Cc1c[nH]c2ccccc12)C(=O)N[C@@H](CC(C)C)C(=O)N[C@H](C(=O)N[C@@H](CCCNC(=N)N)C(=O)N[C@@H](CCC(N)=O)C(=O)N[C@@H](CCCNC(=N)N)C(=O)N[C@@H](Cc1ccc(O)cc1)C(N)=O)[C@@H](C)O)C(C)C) [Compound 15] |
| 0.108 | > 5000 | 5.64 | Isovaleryl-APAK([Ahx-γGlu-C18 diacid])PEEDATPEELQRYYVSLRHYYNWLTRQRY-NH2 (SMILES CC(C)CC(=O)N[C@@H](C)C(=O)N1CCC[C@H]1C(=O)N[C@@H](C)C(=O)N[C@@H](CCCCNC(=O)CCCCCNC(=O)CC[C@H](NC(=O)CCCCCCCCCCCCCCCCC(=O)O)C(=O)O)C(=O)N1CCC[C@H]1C(=O)N[C@@H](CCC(=O)O)C(=O)N[C@@H](CCC(=O)O)C(=O)N[C@@H](CC(=O)O)C(=O)N[C@@H](C)C(=O)N[C@H](C(=O)N1CCC[C@H]1C(=O)N[C@@H](CCC(=O)O)C(=O)N[C@@H](CCC(=O)O)C(=O)N[C@@H](CC(C)C)C(=O)N[C@@H](CCC(N)=O)C(=O)N[C@@H](CCCNC(=N)N)C(=O)N[C@@H](Cc1ccc(O)cc1)C(=O)N[C@@H](Cc1ccc(O)cc1)C(=O)N[C@H](C(=O)N[C@@H](CO)C(=O)N[C@@H](CC(C)C)C(=O)N[C@@H](CCCNC(=N)N)C(=O)N[C@@H](Cc1c[nH]cn1)C(=O)N[C@@H](Cc1ccc(O)cc1)C(=O)N[C@@H](Cc1ccc(O)cc1)C(=O)N[C@@H](CC(N)=O)C(=O)N[C@@H](Cc1c[nH]c2ccccc12)C(=O)N[C@@H](CC(C)C)C(=O)N[C@H](C(=O)N[C@@H](CCCNC(=N)N)C(=O)N[C@@H](CCC(N)=O)C(=O)N[C@@H](CCCNC(=N)N)C(=O)N[C@@H](Cc1ccc(O)cc1)C(N)=O)[C@@H](C)O)C(C)C)[C@@H](C)O) [Compound 26] |
| 0.181 | > 5000 | 12.6 | Isovaleryl-APEK([Ahx-γGlu-C18 diacid])PEEEASPEELQRYYVSLRHYYNWLTRQRY-NH2 (SMILES CC(C)CC(=O)N[C@@H](C)C(=O)N1CCC[C@H]1C(=O)N[C@@H](CCC(=O)O)C(=O)N[C@@H](CCCCNC(=O)CCCCCNC(=O)CC[C@H](NC(=O)CCCCCCCCCCCCCCCCC(=O)O)C(=O)O)C(=O)N1CCC[C@H]1C(=O)N[C@@H](CCC(=O)O)C(=O)N[C@@H](CCC(=O)O)C(=O)N[C@@H](CCC(=O)O)C(=O)N[C@@H](C)C(=O)N[C@@H](CO)C(=O)N1CCC[C@H]1C(=O)N[C@@H](CCC(=O)O)C(=O)N[C@@H](CCC(=O)O)C(=O)N[C@@H](CC(C)C)C(=O)N[C@@H](CCC(N)=O)C(=O)N[C@@H](CCCNC(=N)N)C(=O)N[C@@H](Cc1ccc(O)cc1)C(=O)N[C@@H](Cc1ccc(O)cc1)C(=O)N[C@H](C(=O)N[C@@H](CO)C(=O)N[C@@H](CC(C)C)C(=O)N[C@@H](CCCNC(=N)N)C(=O)N[C@@H](Cc1c[nH]cn1)C(=O)N[C@@H](Cc1ccc(O)cc1)C(=O)N[C@@H](Cc1ccc(O)cc1)C(=O)N[C@@H](CC(N)=O)C(=O)N[C@@H](Cc1c[nH]c2ccccc12)C(=O)N[C@@H](CC(C)C)C(=O)N[C@H](C(=O)N[C@@H](CCCNC(=N)N)C(=O)N[C@@H](CCC(N)=O)C(=O)N[C@@H](CCCNC(=N)N)C(=O)N[C@@H](Cc1ccc(O)cc1)C(N)=O)[C@@H](C)O)C(C)C) [Compound 23] |
| 0.176 | > 5000 | 2.39 | Isovaleryl-APEK([Ahx-γGlu-C18 diacid])PEEDASPEEIQRYYVELRHYYNWLTRQRY-NH2 (SMILES CC[C@H](C)[C@H](NC(=O)[C@H](CCC(=O)O)NC(=O)[C@H](CCC(=O)O)NC(=O)[C@@H]1CCCN1C(=O)[C@H](CO)NC(=O)[C@H](C)NC(=O)[C@H](CC(=O)O)NC(=O)[C@H](CCC(=O)O)NC(=O)[C@H](CCC(=O)O)NC(=O)[C@@H]1CCCN1C(=O)[C@H](CCCCNC(=O)CCCCCNC(=O)CC[C@H](NC(=O)CCCCCCCCCCCCCCCCC(=O)O)C(=O)O)NC(=O)[C@H](CCC(=O)O)NC(=O)[C@@H]1CCCN1C(=O)[C@H](C)NC(=O)CC(C)C)C(=O)N[C@@H](CCC(N)=O)C(=O)N[C@@H](CCCNC(=N)N)C(=O)N[C@@H](Cc1ccc(O)cc1)C(=O)N[C@@H](Cc1ccc(O)cc1)C(=O)N[C@H](C(=O)N[C@@H](CCC(=O)O)C(=O)N[C@@H](CC(C)C)C(=O)N[C@@H](CCCNC(=N)N)C(=O)N[C@@H](Cc1c[nH]cn1)C(=O)N[C@@H](Cc1ccc(O)cc1)C(=O)N[C@@H](Cc1ccc(O)cc1)C(=O)N[C@@H](CC(N)=O)C(=O)N[C@@H](Cc1c[nH]c2ccccc12)C(=O)N[C@@H](CC(C)C)C(=O)N[C@H](C(=O)N[C@@H](CCCNC(=N)N)C(=O)N[C@@H](CCC(N)=O)C(=O)N[C@@H](CCCNC(=N)N)C(=O)N[C@@H](Cc1ccc(O)cc1)C(N)=O)[C@@H](C)O)C(C)C) [Compound 52] |
| 0.31 | > 5000 | 2.81 | Isovaleryl-APEK([Ahx-γGlu-C18 diacid])PEEDATPEELQKYYVSLRHYYNWLTRQRY-NH2 (SMILES CC(C)CC(=O)N[C@@H](C)C(=O)N1CCC[C@H]1C(=O)N[C@@H](CCC(=O)O)C(=O)N[C@@H](CCCCNC(=O)CCCCCNC(=O)CC[C@H](NC(=O)CCCCCCCCCCCCCCCCC(=O)O)C(=O)O)C(=O)N1CCC[C@H]1C(=O)N[C@@H](CCC(=O)O)C(=O)N[C@@H](CCC(=O)O)C(=O)N[C@@H](CC(=O)O)C(=O)N[C@@H](C)C(=O)N[C@H](C(=O)N1CCC[C@H]1C(=O)N[C@@H](CCC(=O)O)C(=O)N[C@@H](CCC(=O)O)C(=O)N[C@@H](CC(C)C)C(=O)N[C@@H](CCC(N)=O)C(=O)N[C@@H](CCCCN)C(=O)N[C@@H](Cc1ccc(O)cc1)C(=O)N[C@@H](Cc1ccc(O)cc1)C(=O)N[C@H](C(=O)N[C@@H](CO)C(=O)N[C@@H](CC(C)C)C(=O)N[C@@H](CCCNC(=N)N)C(=O)N[C@@H](Cc1c[nH]cn1)C(=O)N[C@@H](Cc1ccc(O)cc1)C(=O)N[C@@H](Cc1ccc(O)cc1)C(=O)N[C@@H](CC(N)=O)C(=O)N[C@@H](Cc1c[nH]c2ccccc12)C(=O)N[C@@H](CC(C)C)C(=O)N[C@H](C(=O)N[C@@H](CCCNC(=N)N)C(=O)N[C@@H](CCC(N)=O)C(=O)N[C@@H](CCCNC(=N)N)C(=O)N[C@@H](Cc1ccc(O)cc1)C(N)=O)[C@@H](C)O)C(C)C)[C@@H](C)O) [Compound 16] |
